Test results as given in paper PMC4574919, “Structural and Biochemical Analysis of a Single Amino-Acid Mutant of WzzBSF That Alters Lipopolysaccharide O-Antigen Chain Length in Shigella flexneri” (PLoS ONE, 2015).
Residue numbers refer to the chain shown, from its start. Names may count otherwise.

B1: periplasmic domain of WzzBSF (residues 54-295) (domain or fragment)
chain: EKWTSTAIITQPDVGQIAGYNNAMNVIYGQAAPKVSDLQETLIGRFSSAFSALAETLDNQEEPEKLTIEPSVKNQQLPLTVSYVGQTAEGAQMKLAQYIQQVDDKVNQELEKDLKDNIALGRKNLQDSLRTQEVVAQEQKDLRIRQIQEALQYANQAQVTKPQVQQTEDVTQDTLFLLGSEALESMIKHEATRPLVFSPNYYQTRQNLLDIEKLKFDDLDIHAYRYVMKPTLPIRRDSPKKA
notes: WzzBSF (polysaccharide co-polymerase, O-antigen chain length regulator) of Shigella flexneri, periplasmic domain, residues 54-295; Cloned in pMCSG7 by ligation-independent cloning; also called wild-type WzzBSF periplasmic domain; source: E. coli BL21(DE3), autoinduction, purified (HisTrap, TEV cleavage, reverse HisTrap, Superdex 200 SEC); not shown: His6, N-terminal, cleaved
B2: periplasmic domain of WzzBSF A107P (residues 54-295) (domain or fragment)
chain: B1 chain with A54P
notes: WzzBSF of Shigella flexneri, periplasmic domain, residues 54-295, with the mutation A107P found by random mutagenesis; Same construct limits as m1 ('the equivalent construct containing the A107P mutation'); also called A107P mutant; source: E. coli BL21(DE3), autoinduction, purified (HisTrap, TEV cleavage, reverse HisTrap, Superdex 200 SEC); not shown: His6, N-terminal, cleaved
B3: full-length WzzBSF (natural protein)
chain: MRVENNNVSGQNHDPEQIDLIDLLVQLWRGKMTIIISVIVAIALAIGYLAVAKEKWTSTAIITQPDVGQIAGYNNAMNVIYGQAAPKVSDLQETLIGRFSSAFSALAETLDNQEEPEKLTIEPSVKNQQLPLTVSYVGQTAEGAQMKLAQYIQQVDDKVNQELEKDLKDNIALGRKNLQDSLRTQEVVAQEQKDLRIRQIQEALQYANQAQVTKPQVQQTEDVTQDTLFLLGSEALESMIKHEATRPLVFSPNYYQTRQNLLDIEKLKFDDLDIHAYRYVMKPTLPIRRDSPKKAITLILAVLLGGMVGAGIVLGRNALRNYNAK
notes: WzzBSF of Shigella flexneri, wzzSF open reading frame in pRMCD30; ~36 kDa; also called wild-type WzzBSF; source: S. flexneri RMA4053 (wzz::kan), from plasmid pRMCD30 (pQE30-based), IPTG-induced, in whole cells

How the values were obtained:
[1] = target: the molecule itself; assay: crystal structure; hanging drop, 18°C, 0.1 M citric-acid/HEPES/CHES pH 7.3, 18% PEG 400, 18% PEG 8000, 0.1 M MgCl2; protein 12-13 mg/ml; open trimer in the crystal
[2] = target: the molecule itself; assay: SDS-PAGE and immunoblot of non-cross-linked cells; whole S. flexneri cells incubated without formaldehyde (control), samples heated at 60°C for 5 min, 12% SDS-PAGE, immunoblot with anti-WzzBSF

Row | Protein | stoichiometry N [1] | stoichiometry N [2]
1 | B1 | 3 | 
2 | B2 | 3 | 
3 | B3 |  | 2
